# Source: the DeepSol protein solubility set
# Test: soluble on expression in E. coli; label from the status in PepcDB or PDB records
row,Sequence,soluble on expression in E. coli
1,ARDPKHDILFEPIQIGPKTLRNRFYQVPHAIGAGSDKPGFQSAHRSVKAEGGWAALNTEYCSINPESDDTHRLSARIWDEGDVRNLKAMTDEVHKYGALAGVELWYGGAHAPNMESRATPRGPSQYASEFETLSYCKEMDLSDIAQVQQFYVDAAKRSRDAGFDIVYVYGAHSYLPLQFLNPYYNKRTDKYGGSLENRARFWLETLEKVKHAVGSDCAIATRFGVDTVYGPGQIEAEVDGQKFVEMADSLVDMWDITIGDIAEWGEDAGPSRFYQQGHTIPWVKLVKQVSKKPVLGVGRYTDPEKMIEIVTKGYADIIGCARPSIADPFLPQKVEQGRYDDIRVCIGCNVCISRWEIGGPPMICTQNATAGEEYRRGWHPEKFRQTKNKDSVLIVGAGPSGSEAARVLMESGYTVHLTDTAEKIGGHLNQVAALPGLGEWSYHRDYRETQITKLLKKNKESQLALGQKPMTADDVLQYGADKVIIATGARWNTDGTNCLTHDPIPGADASLPDQLTPEQVMDGKKKIGKRVVILNADTYFMAPSLAEKLATAGHEVTIVSGVHLANYMHFTLEYPNMMRRLHELHVEELGDHFCSRIEPGRMEIYNIWGDGSKRTYRGPGVSPRDANTSHRWIEFDSLVLVTGRHSECTLWNELKARESEWAENDIKGIYLIGDAEAPRLIADATFTGHRVAREIEEANPQIAIPYKRETIAWGTPHMPGGNFKIEYKV,soluble
2,MSLTDLKEVARLAGVSRATAARAFASPEVVRAETRERVFVAARELGFRPNRLGRQLRLQTTNLIGVIVPNLLNPVFAEQFQAMERAARARGYNLLLATTDYSAERESAVVEELLRQRVDGLVLTVTDAEHNRVLESLAIEDTPFVLAYHQTDNEEYSAVSVDNRAGMALATRYLIDAGHRCIAMVAGPVMQSDRARLRYEGYRDAMNEGGLEARPVIEMPAHTNADFAALKPLLRGPTAPSALVCSNDLLAISLIAELRRNGWGVPERLSVIGFDGIALGTQMHPTLCSVVQPIAELAHIVIDQLLARIAGAVPVSHCLPCHIRPGESTQPYKEMLHAQPEGHHHHHH,soluble
3,PQPGAARGLGRVAYADARQHRDILQSLVRALNGSRRRIWLATPYFLPTWKVRRALRKAAQRGVEVRLLLAGRLTDHAPVRYAGQRYYPRLLRAGVRIHEYQPRFLHLKMVMVDDWVSVGSCNFDHWNLRFNLDANLEALDPDFTNEAAASLLADFADSREVTLAMWRARPLWMR,not soluble
4,MGSSHHHHHHSSGLVPRGSHMWIGVISLFPEMFKAITEFGVTGRAVKHNLLKVECWNPRDFTFDKHKTVDDRPYGGGPGMLMMVQPLRDAIHTAKAAAGEGAKVIYLSPQGRKLDQGGVTELAQNQKLILVCGRYEGIDERLIQTEIDEEWSIGDYVLTGGELPAMTLIDAVARFIPGVLGKQASAEEDSFADGLLDCPHYTRPEVLEGLTVPPVLMSGHHEEIRKWRLKQSLQRTWLRRPELLEGLALTDEQRKLLKEAQAEHNSLEHHHHHH,soluble
5,MYIMKQSGWLELICGSMFSGKSEELIRRVKRATYAKQEVRVFKPVIDNRYSEAAVVSHNGTSMTSYAISSAADIWDHISESTDVVAVDEVQFFDQEIVEVLSSLADKGYRVIAAGLDMDFRGEPFGVVPNIMAIAESVTKLQAVCSVCGSPASRTQRLIDGKPASYDDPVILVGAAESYEARCRHHHEVPGKSKKLEHHHHHH,soluble
6,MLEQPIGVIDSGVGGLTVAKEIMRQLPKENIIYVGDTKRCPYGPRPEEEVLQYTWELTNYLLENHHIKMLVIACNTATAIALDDIQRSVGIPVVGVIQPGARAAIKVTDNQHIGVIGTENTIKSNAYEEALLALNPDLKVENLACPLLVPFVESGKFLDQTADEIVKTSLYPLKDTSIDSLILGCTHYPILKEAIQRYMGEHVNIISSGDETAREVSTILSYKGLLNQSPIAPDHQFLTTGARDQFAKIADDWFGHEVGHVECISLQEPIKR,soluble
7,MKSRLPFRYLEPTFCAGLLDDPVLLVNVRPLGRSILVDCGQIHHLAKRVLKSIDAVFVSHAHMDHFMGLDTLVRHIHVSPRTVELFGPPGIARKVAAKLAGYDWNLTESYWCTFRVSEVHPERIVRFTFPGSEGFPCLPEEETTREGTEIFRNDFLAVDADLCDHNTLPTLVFRITERPTFWIDEAKVDQEGLVPGEWLRELKHRFYRGRLDGKTITVPVRTAGDTVAQRIREGRELFEAIRRSQEPASIGYLTDIGAGDTNLATVRRLLAGVTLLACECSFLAADVAKARTSHHLCTADVSALAREIRPGWLLPMHLSKSYNTKGHLLYRELTLAPETRLIRLPEHLTPRPLLPGEFPGLWKIAEMAGDPNSLEHHHHHH,not soluble
8,MINSKKELRKNMVLKRDSLEPDLKSIKDNMIYNKVINSIQYKSANNIFVFVSYKSEVDTHNIIRTAIADGKKVFVPKVISKEKGMEAAEIRGFFDLEKSAYGILEPKSSNYIEPESIELLLVPGLAFDESGGRIGYGGGFYDRYMSLLDKSAVKVGICYDFQVIDKVIMNINDVPVDKIIVGLEHHHHHH,not soluble
9,MGSDKIHHHHHHMTTSTNERTTRAELQDAPRVARLHPQPDYRISVGGRDLSRLFAPRLVSLSISESRSDEADTIDIVLDDSKNDLDIPKRGATIKASIGWAGEPLVDKGSFVVNEVEHSGAPDIITIRARSAAMTSGMQERREKSWHRQTIGSIVHAIAGRYSLSPTVGDALAKILIAHIDQTHESDMSFLTRLAKRYDAVMNVKDLRLLFMPIGTGQTATGKKLDVLELTRASGDSHRYHVSERENYAAVRAHYHSTGRAKRKSVIVGGENNKNVKVLPEDYATEAEARAAAQAEFKRMQRSQATMSYTLARGRAELFPEMPVTVSGFKPEIDETPWLVKKATHTIGDVGFTTALELEMRDDPTTERHRSHFQGSR,not soluble
10,AHHHHHHGSKWEEWKPFYERIVKEMGYSIEEDRRAAELLRDILMENDNYIIKEELNSIIMQKVYVFGAGPNLEEALKKGDFKDGTKIAADGATSALLEYGITPDVVVTDLDGRIRDLLEASRKAVMVVHAHGDNMDKLPLVVEFPLVLGTCQTEPLDIVYNFGGFTDGDRAAFLAEEMGAKEIVLVGFDFSGIVGKWSKPWLRDHTPAWESKMKKLKFARELLEWLKNNGRAKIIEFSI,not soluble
11,MGSDKIHHHHHHMTVCVWCQRPLKTSLTLAQFWRWGPVTPPDICVPCQGRLSPISGQHCPQCGRQQTTCQLCQDCQRWDQPLVNRALYCYDAEMKAYMQQYKFQGDYALQRVLQRALATALTQLTYDILVPIPIAQSTWQSRGFNQVTGWLTGQAYYQVLQVIDQDKATPQSAKNRAQRFLLTPQPFTLAPQAKDLCHGQRVLLLDDVYTTGRTLRHAATQINLTGAKAVTSLTLAR,not soluble
12,SSAESVSCTVKSPVALQIGDAVSDSSRPGVYITDITLAEPVNIQEISFKNFYTAYLTVRLQRRHGSTASKWVTCLKNYCLMGNPHAEAGSHDYFSIYRQQMSTEPDNVTTVRLILRQPSSEWLSFSIEEINIYPCTKEDSERDVPAWLSTLTPVDEPLDLKGLPDPETVSSSIQQMWALTEIMQASQTAASIGRFDVEGAYDVKLLSYT,not soluble
13,MSLAEFFKDSKASLELRNFYMNKDFRDEVSSAANQQSKQDEWAQGFILKYESGYTEGPVGFGLDMLGLLGVKLDSGPGEAGTGLLPGGYNNRAPDDYSELGVTGKVRFSKTELKVGTLLPKNPVLVYNDTRLLPQTFQGGNLQIKEIEGLTLDFGYLDEVNYRNSTHNEEMSLVNANRRNITIKPGAENEANFFMYGGATYQVTKALTATYYYGELDDLYKQHAVNLVHVLPLGKSSLKTDLRYARSTDDGEAHVDNHAFGLLTTYAMGAHKFGLGLQKMQGDTGFAQINGTDPFLVNYIQVNDFGNADERSWQLRYDYDFAALGIPGLTFMTRYVSGDHVDRGPGSDGKEWERDMDIAYVFQSGMLKNLSLKWRNATMRSNFVRDVDENRLIVSYTLPLLEGHHHHHH,not soluble
14,MGSDKIHHHHHHKLRDEGDAALKAKDYATVVTKYGEYLKQNNYQDTARIFNCGYAANQAKNYAEAAKYFDMAVKMNYNVDDSYVGEAMAYRNLNKTEEFLTTVKEGLKVIPDGNKNKTNLEKLLYGYCIKQGQAAQKKGDLAGAEKMYKEVLAVSNKDYQSNAYYSLGAMLYGNGAKILQAATPIATSEPDKYNAEKAKADKDFKQAKEYLTKAVELDPKDENSKKILASINDILK,not soluble
15,MELIRNLDDANMGEVYWRLYRRYISLFIENEADDAYAWRCARALDELDDAVIERLCAASLRYRAARLERLGESAEEVAPARGVLERIEPGELIVPDPEQGDEAVIHLSLNCEWDREHGMEWIVRGGEVLYVGPFHGEDPWRDFTVKEPWNYA,not soluble
16,MESTQKDIKLEPDEFNYIIAPGAPESENLAENPENPVDLSEIPLETKPAWFPSSKGRSIVWEHITWVAESQRAACNYCAAEFQVKGGTSALLRHLKTIHPAAINFDPENPPPVARRKRKKMEDYTIVTEDTKSYMDNLLEQFLNVDDSAPRGGLPDHDSPQHMLVVDPQSRADSEIDAVIRNLQQETEQNGLLEPEPDQALKKLLGIDDGRCEEVIAIAAPIQQDEEKQVSSSSGGAQTKKRRADEQKLTENPALNSGKFSLSILSAIRRPPLPSSTATSSSAAAPQIPAMTSSAVASATSAAAAATPMMPAKYNAQAVQILDFEAKVLYNQSLHSTIAREDAMTTYYRMKSRKLELEIKKLERELGEEQDEAQEHEE,not soluble
17,MGSDKIHHHHHHMRYVKLHSEYFPEFFNRLKEVGRVYGPVRHNSTYRFEEVNSIDELSLDYTRTILPPKKFFIRPRDAMFKIQKNEVTEVDGDGKFVLFGVHSCDIHGIKILDKVYLSNPPDPYYERRRKNAFIVGISCMPDEYCFCKSLGTDFAMDGFDIFLHELPDGWLVRVGSVKGHEFVWENQDIFDDVTEEDLRNFKEFEEKRAKAFKKSLNKEGLADILDLAFTSKVWKKYAEKCLGCGNCTIVCPTCRCYEVCDTWVRAYEALRMRRYDSCFMPTHGLVAGGHNFRPTRLDRFRHRYYCKNYFDPEAGFNCVGCGRCDEFCPARIEHVKVLDEVREGLI,not soluble
18,THMRCRVYYEDTDSEGVVYHANYLKYCERARSEFFFKQNVLPENEEGVFVIRSIKADFFTPASLGQVLEIRTQIKELRKVFVVLFQEIYCIQNASLEPMKPFKVFASEIKFGFVNRSTYSPIAIPKLFKELLNAI,soluble
19,MKVGIVLNPHAGGGFDDLKRRVVVRVLKKLDGEFVTADKVAELLGIEAERVKVKETNTRLDTVNLVKALDGNVDVIAVFGGDGTVSDAASAKPQTPLLCIGIGTTNVSPALCPPDFDRLEEVEMRGLVVKFGGEERVAFNDVVVGSTILSTVDGKRVQVDARRYMRGEKVIATPRKFRARVEVGERVVEGVFGNIFVAMTDRRFLGKGIAGGASLSAFLGFKGVVACVSEGIVVSTYTKEDLRRVEPIVTSTISFDDEVVKIDADEVVSCDGNPLGVGRAEVAIEDGVVRVLKPFKEEE,soluble
20,MPYVTVKMLEGRTEEQKKALAEKVTAAVSETTGAPEENIVVFIEEMSKNHYAVGGKRLSDK,not soluble
21,MGSDKIHHHHHHMIDPAGRTTAWEYDAYGSLLVQTLPDGSAVRTEFDLDHRPVCMTLIGGRQWGYEWNTFGNLLAQSDPSGAISRYTYDEYGQLVEHTGPRGASTRFDYHPDGNLAAQIDALGHRTQYRYDARGYLGEAIDALGQQSQYEYDRNGHLTRAIEPGGREIHCAYDADGNLSRHRDPMGHVTQMEYSALGQVSRRLAPDGTTVEYRYDTEEQLIGVVNERSELYALERDALGRIVVETDYWGQARRYRYGAAGELLCSTDPLGQTVEYRYDWLGRIVQKRVPHPEQDEALQIDSFAYDRHGDLVLAENPSCRVEFDYDAAGRMIEERQGDDFTIASDYDEAVTCPLR,not soluble
22,MYKLDLPTLMDAFHKVFHVSMLRKCITHQENVISEPPPDLLENMMIVGMLIPNLLGVSSEMVGR,not soluble
